The target of the test is T1, recombinant human TNFR2 (SinoBiological, 10417-H03H) (human, UniProt P20333 23-257).
T1 construct: Bought protein; also called human recombinant TNFR2
T1 sequence (looked up): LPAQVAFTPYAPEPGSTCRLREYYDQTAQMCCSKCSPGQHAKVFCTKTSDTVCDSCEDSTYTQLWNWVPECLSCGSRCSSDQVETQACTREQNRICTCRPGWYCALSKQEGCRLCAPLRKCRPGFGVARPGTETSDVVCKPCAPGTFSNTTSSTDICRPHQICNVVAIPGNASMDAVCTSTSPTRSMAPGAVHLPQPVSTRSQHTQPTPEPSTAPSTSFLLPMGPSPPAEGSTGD
Briefly: ELISA on plate-coated recombinant human TNFR2, detection with anti-camelid-VHH-HRP; the axis is the lysate concentration. How it is done:
The prepared positive clone lysate was subjected to ELISA affinity detection. The specific method was as follows: a 96-well ELISA plate was coated with 2 μg/mL recombinant human TNFR2 and incubated overnight at 4° C.; the next day, the well plate was washed 3 times with PBST, 5% skim milk was added, and blocking was performed for 2 h; subsequently, the well plate was washed 3 times with PBST, gradiently diluted positive clone lysates were added, and incubation was performed for 1 h; subsequently, the well plate was washed 3 times with PBST, Rabbit Anti-Camelid-VHH-HRP (Genescript, A01861-200) diluted at 1:8000 was added, and incubation was performed for 1 h; subsequently, the well plate was washed 6 times with PBST, TMB (SurModics, TMBS-1000-01) was added for color development in the dark for 5-10 min, and 2 M HCl was added to stop the reaction according to the color development results; the values at OD450 were read by a microplate reader (Molecular Devices, SpecterMax 190) and fitted by four parameters.

B1: NB92-161 VHH (positive clone lysate from E. coli) (VHH)
VHH: EVQLVESGGGLVQPGGSLRLSCAASGSIFSINDMGWYRQAPGKQRELVAAIGRGGGSTNYADSVKGRFTISRDNAKNTVYLQMNSLKPEDTAVYYCHAEISQLTWAFRDYWGQGTQVTVSS
notes: Tested as crude bacterial lysate from the phage display vector
In the case of B1, the “EC50 (read off the curve)” value was roughly 0.2 mg/L.
